{
  "source": "patent US20170081400A1",
  "about": "(CEPHALON, published 2017)",
  "molecules": {"B1": {"name": "320-189 (antibody, human IgG1, name in Kabat numbering, V domains shown)", "VH": "QVQLVQSGAEVKKPGASVKVSCKASGYTFTSYDINWVRQAPGQGLEWMGWLNPNSGNTGYAQKFQGRVTMTADRSTSTAYMELSSLRSEDTAVYYCAREVPETAAFEYWGQGTLVTVSS", "VL": "QSVLTQPPSVSGAPGQRVTISCTSSSSDIGAGLGVHWYQQLPGTAPKLLIEGYYNRPSGVPDRFSGSKSGTSASLTITGLKPEDEGDYYCQSYDGTLSALFGGGTKLTVLG", "notes": "human IgG1, lambda"}, "B2": {"name": "320-331 (antibody, human IgG1, name in Kabat numbering, V domains shown)", "VH": "B1 VH", "VL": "B1 VL with K81L, Y93W", "notes": "human IgG1, lambda"}, "B3": {"name": "320-457 (antibody, human IgG1, name in Kabat numbering, V domains shown)", "VH": "B1 VH with I34D", "VL": "B1 VL with K81L"}, "B4": {"name": "320-585 (antibody, human IgG1, name in Kabat numbering, V domains shown)", "VH": "B1 VH", "VL": "B1 VL with L33Q, K81L, Y93W", "notes": "human IgG1, lambda"}, "B5": {"name": "320-586 (antibody, human IgG1, name in Kabat numbering, V domains shown)", "VH": "B1 VH", "VL": "B1 VL with H36L, K81L, Y93W", "notes": "human IgG1, lambda"}, "B6": {"name": "320-583 (antibody, human IgG1, name in Kabat numbering, V domains shown)", "VH": "B1 VH", "VL": "B1 VL with G32A, K81L, Y93W", "notes": "human IgG1, lambda"}, "B7": {"name": "320-191 (antibody, human IgG1, name in Kabat numbering, V domains shown)", "VH": "B1 VH", "VL": "B1 VL with K81Y", "notes": "human IgG1, lambda"}, "B8": {"name": "320-584 (antibody, human IgG1, name in Kabat numbering, V domains shown)", "VH": "B1 VH", "VL": "B1 VL with L33S, K81L, Y93W", "notes": "human IgG1, lambda"}, "B9": {"name": "320-547 (antibody, human IgG1, name in Kabat numbering, V domains shown)", "VH": "B1 VH with N57Y", "VL": "B1 VL with K81L", "notes": "human IgG1, lambda"}, "B10": {"name": "320-190 (antibody, human IgG1, name in Kabat numbering, V domains shown)", "VH": "B1 VH", "VL": "B1 VL with K81W", "notes": "human IgG1, lambda"}},
  "key": {"[1]": {"target": "membrane TL1A on human PBMCs (human) (UniProt O95150)", "experiment": "flow cytometry on human PBMCs, antibody staining against CD14 [left plot]"}, "[2]": {"target": "T1, human TL1A extracellular domain with N-terminal HIS and FLAG tag (human, UniProt O95150 72-251)", "T1 construct": "whole entry named. ~70 kDa fraction purified by gel filtration", "T1 sequence": "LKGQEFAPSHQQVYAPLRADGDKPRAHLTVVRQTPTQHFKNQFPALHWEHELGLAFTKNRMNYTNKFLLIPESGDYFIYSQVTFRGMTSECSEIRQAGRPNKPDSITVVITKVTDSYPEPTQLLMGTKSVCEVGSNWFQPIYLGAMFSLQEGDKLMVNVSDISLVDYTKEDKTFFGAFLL", "experiment": "SPR run 1; purified antibody on Protein A; TL1A 10 ug/mL; timepoint 590", "excerpt": "(§1) 1.5. Antibody expression and antigen binding as determined by SPR. Using a CM5 sensor chip (GE Healthcare) Protein A (Pierce) was coupled to the chip surface using an amine coupling kit (GE Healthcare). Protein A was coupled on flow cell 1 and 2 (or alternatively 3 and 4) using a BIACORE® T200. […] The amount of supernatant or purified protein (as well as the concentration) injected during the capture stage varied between runs and is specified in the header of the Tables 3-11. At the end of injection of the supernatant or purified antibody the change in response units was measured. This value was reported as Capture Level in Tables 3-11. […] The response units were measured prior to the end of the dissociation phase. […] The sensorgrams were double referenced (flow cell 2 is subtracted from flow cell 1 and a buffer blank). As there were a large number of antibody variants to screen, these were screened across different runs (Tables 3-11). […] A summary of the conditions used in each run is below:\n(§2) 2.1. […] In some experiment the antibodies were purified using Protein A chromatography (See 1.4) and purified antibodies were used in BIACORE® (GE Healthcare) experiments."}, "[3]": {"target": "T2, human TL1A extracellular domain with N-terminal HIS and FLAG tag (human) (UniProt O95150)", "T2 sequence": "T1 sequence", "experiment": "cell-based or functional assay"}, "[4]": {"target": "T1, human TL1A extracellular domain with …", "experiment": "SPR run 1; purified antibody on Protein A; TL1A 10 ug/mL; timepoint 59", "excerpt": "as §1, §2"}, "[5]": {"target": "T3, single-site biotinylated human TL1A (human, UniProt O95150 72-251, single-site biotinylated (site not stated))", "T3 construct": "construct used for biotinylation not described", "T3 sequence": "T1 sequence", "experiment": "competition ELISA: antibody dilutions pre-incubated with biotinylated human TL1A (1 µg/ml), added to plate-coated DR3/Fc; bound TL1A detected with streptavidin-HRP; blocked partner DR3/Fc [top panel]", "experimental": "(§3) 1.8. […] DR3/Fc Chimera (R&D Systems) or DcR3/Fc Chimera (R&D Systems) was coated onto a 96-well plate (Maxisorp, Nunc) at a concentration of 2 μg/ml."}, "[6]": {"target": "T2, human TL1A extracellular domain with N-terminal HIS and FLAG tag (human)", "experiment": "SPR Run 6, purified Ab captured on Protein A, TL1A 5 ug/mL, timepoint 44"}, "[7]": {"target": "T2, human TL1A extracellular domain with N-terminal HIS and FLAG tag (human)", "experiment": "SPR Run 6, purified Ab captured on Protein A, TL1A 5 ug/mL, timepoint 170"}, "[8]": {"target": "T3, single-site biotinylated human TL1A", "experiment": "competition ELISA: antibody dilutions pre-incubated with biotinylated human TL1A (1 µg/ml), added to plate-coated DcR3/Fc; bound TL1A detected with streptavidin-HRP; blocked partner DcR3/Fc [bottom panel]", "experimental": "as §3"}},
  "note": "Residue numbers refer to the chain shown, from its start.",
  "data": [
    {"molecule": "Isotype control (antibody)", "values": [
      {"measurement": "number in the upper left quadrant (antibody-positive, CD14-negative cells)", "setting": "[1]", "result": 0.51},
      {"measurement": "number in the upper right quadrant (antibody-positive, CD14-positive cells)", "setting": "[1]", "result": 0.07}
    ]},
    {"molecule": "B1", "values": [
      {"measurement": "TL1A Binding Level (Late)", "setting": "[2]", "result": 107, "unit": "RU"},
      {"measurement": "Antibody IC50, TL1A induced caspase potency assay in TF-1 cells", "setting": "[3]", "result": 0.11, "unit": "µg/mL"},
      {"measurement": "Fold improvement over 320-179, TL1A induced caspase potency assay in TF-1 cells", "setting": "[3]", "result": 0, "unit": "fold"},
      {"measurement": "TL1A Binding Level (Early)", "setting": "[4]", "result": 130, "unit": "RU"}
    ]},
    {"molecule": "B2", "values": [
      {"measurement": "IC50 (read off the curve)", "setting": "[5]", "result": "~0.08", "unit": "µg/mL"}
    ]},
    {"molecule": "B3", "values": [
      {"measurement": "TL1A Binding Level (Early)", "setting": "[6]", "result": 6, "unit": "RU"},
      {"measurement": "TL1A Binding Level (Late)", "setting": "[7]", "result": 4, "unit": "RU"}
    ]},
    {"molecule": "B4", "values": [
      {"measurement": "IC50 (read off the curve)", "setting": "[8]", "result": "~2", "unit": "µg/mL"}
    ]},
    {"molecule": "B5", "values": [
      {"measurement": "IC50 (read off the curve)", "setting": "[8]", "result": "~2", "unit": "µg/mL"}
    ]},
    {"molecule": "B6", "values": [
      {"measurement": "IC50 (read off the curve)", "setting": "[8]", "result": "~1", "unit": "µg/mL"}
    ]},
    {"molecule": "B7", "values": [
      {"measurement": "TL1A Binding Level (Late)", "setting": "[2]", "result": 117, "unit": "RU"},
      {"measurement": "Antibody IC50, TL1A induced caspase potency assay in TF-1 cells", "setting": "[3]", "result": 0.02, "unit": "µg/mL"},
      {"measurement": "Fold improvement over 320-179, TL1A induced caspase potency assay in TF-1 cells", "setting": "[3]", "result": 2, "unit": "fold"},
      {"measurement": "TL1A Binding Level (Early)", "setting": "[4]", "result": 140, "unit": "RU"}
    ]},
    {"molecule": "B8", "values": [
      {"measurement": "IC50 (read off the curve)", "setting": "[8]", "result": "~2", "unit": "µg/mL"}
    ]},
    {"molecule": "B9", "values": [
      {"measurement": "IC50 (read off the curve)", "setting": "[5]", "result": "~0.07", "unit": "µg/mL"}
    ]},
    {"molecule": "B10", "values": [
      {"measurement": "TL1A Binding Level (Late)", "setting": "[2]", "result": 113, "unit": "RU"},
      {"measurement": "Antibody IC50, TL1A induced caspase potency assay in TF-1 cells", "setting": "[3]", "result": 0.02, "unit": "µg/mL"},
      {"measurement": "Fold improvement over 320-179, TL1A induced caspase potency assay in TF-1 cells", "setting": "[3]", "result": 2, "unit": "fold"},
      {"measurement": "TL1A Binding Level (Early)", "setting": "[4]", "result": 136, "unit": "RU"}
    ]}
  ]
}
